Measured values as given in patent EP1241259A1 (UNIVERSITE LIBRE DE BRUXELLES, dated 2002).

Target: ORL1 (Opioid Receptor-Like 1) receptor stably expressed on recombinant CHO(ORL1^+) cells (UniProt P41146 1-370, limits assumed)
Test: cell-based or functional assay

Sequence of ORL1 (Opioid Receptor-Like 1) receptor stably expressed on recombinant CHO(ORL1^+) cells (P41146 whole entry): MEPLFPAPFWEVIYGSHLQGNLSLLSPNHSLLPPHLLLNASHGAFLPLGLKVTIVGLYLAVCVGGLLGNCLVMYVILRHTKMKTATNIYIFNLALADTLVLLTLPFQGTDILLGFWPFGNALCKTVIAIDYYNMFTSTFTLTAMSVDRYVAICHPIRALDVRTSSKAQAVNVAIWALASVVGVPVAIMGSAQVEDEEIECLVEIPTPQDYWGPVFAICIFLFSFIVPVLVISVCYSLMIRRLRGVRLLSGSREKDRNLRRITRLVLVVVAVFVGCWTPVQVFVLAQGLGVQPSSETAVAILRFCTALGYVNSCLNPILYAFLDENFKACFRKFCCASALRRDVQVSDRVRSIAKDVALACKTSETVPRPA

## YGGFTGARKSARKLANQ [^1Tyr analogue of the synthetic heptadecapeptide]
  inhibition of forskolin-induced accumulation of cAMP in CHO cells expressing the receptor, IC50: 1 nM
